Assay results taken from the supplement of paper PMC11246515.
± gives the standard deviation of the averaged measurements.

Test: total protein half-life in vivo (active degradation + dilution); higher = more stable protein
[1] = E. coli NCM3722 delta-clpP delta-lon delta-hslV, growth: N-lim chemostat, doubling time 6 h
[2] = E. coli NCM3722 delta-clpP, growth: N-lim chemostat, doubling time 6 h
[3] = E. coli NCM3722 delta-hslV, growth: N-lim chemostat, doubling time 6 h
[4] = E. coli NCM3722 delta-lon, growth: N-lim chemostat, doubling time 6 h
[5] = E. coli NCM3722 delta-smpB, growth: N-lim chemostat, doubling time 6 h
[6] = wild type E. coli NCM3722, growth: C-lim chemostat, doubling time 3 h
[7] = wild type E. coli NCM3722, growth: C-lim chemostat, doubling time 6 h
[8] = wild type E. coli NCM3722, growth: C-lim chemostat, doubling time 12 h
[9] = wild type E. coli NCM3722, growth: N-lim chemostat, doubling time 6 h
[10] = wild type E. coli NCM3722, growth: N-lim chemostat, doubling time 12 h
[11] = wild type E. coli NCM3722, growth: P-lim chemostat, doubling time 6 h
[12] = wild type E. coli NCM3722, growth: P-lim chemostat, doubling time 12 h

Sequence	total protein half-life in vivo [1] [h]	total protein half-life in vivo [2] [h]	total protein half-life in vivo [3] [h]	total protein half-life in vivo [4] [h]	total protein half-life in vivo [5] [h]	total protein half-life in vivo [6] [h]	total protein half-life in vivo [7] [h]	total protein half-life in vivo [8] [h]	total protein half-life in vivo [9] [h]	total protein half-life in vivo [10] [h]	total protein half-life in vivo [11] [h]	total protein half-life in vivo [12] [h]
MKQGLQLRLSQQLAMTPQLQQAIRLLQLSTLELQQELQQALESNPLLEQIDTHEEIDTRETQDSETLDTADALEQKEMPEELPLDASWDTIYTAGTPSGTSGDYIDDELPVYQGETTQTLQDYLMWQVELTPFSDTDRAIATSIVDAVDETGYLTVPLEDILESIGDEEIDIDEVEAVLKRIQRFDPVGVAAKDLRDCLLIQLSQFDKTTPWLEEARLIISDHLDLLANHDFRTLMRVTRLKEDVLKEAVNLIQSLDPRPGQSIQTGEPEYVIPDVLVRKHNGHWTVELNSDSIPRLQINQHYASMCNNARNDGDSQFIRSNLQDAKWLIKSLESRNDTLLRVSRCIVEQQQAFFEQGEEYMKPMVLADIAQAVEMHESTISRVTTQKYLHSPRGIFELKYFFSSHVNTEGGGEASSTAIRALVKKLIAAENPAKPLSDSKLTSLLSEQGIMVARRTVAKYRESLSIPPSNQRKQLV	5.34 ± 0.089	4.45 ± 0.42	3.48 ± 0.12	4.78 ± 0.64	3.657 ± 0.022	2.57 ± 0.1	4.75 ± 0.098	7.27 ± 1.6	3.94 ± 0.43	5.68 ± 0.088	3.61 ± 0.56	6.22 ± 0.58
MHPMLNIAVRAARKAGNLIAKNYETPDAVEASQKGSNDFVTNVDKAAEAVIIDTIRKSYPQHTIITEESGELEGTDQDVQWVIDPLDGTTNFIKRLPHFAVSIAVRIKGRTEVAVVYDPMRNELFTATRGQGAQLNGYRLRGSTARDLDGTILATGFPFKAKQYATTYINIVGKLFNECADFRRTGSAALDLAYVAAGRVDGFFEIGLRPWDFAAGELLVREAGGIVSDFTGGHNYMLTGNIVAGNPRVVKAMLANMRDELSDALKR [P0ADG4]	5.94 ± 0.37	6.49 ± 1.6	5.2 ± 0.23	–	5.39 ± 0.47	3.01 ± 0.21	6.17 ± 0.55	12 ± 0.71	5.53 ± 0.19	10.2 ± 0.39	6.063 ± 0.06	14 ± 1
MAVQKNVIKGILAGTFALMLSGCVTVPDAIKGSSPTPQQDLVRVMSAPQLYVGQEARFGGKVVAVQNQQGKTRLEIATVPLDSGARPTLGEPSRGRIYADVNGFLDPVDFRGQLVTVVGPITGAVDGKIGNTPYKFMVMQVTGYKRWHLTQQVIMPPQPIDPWFYGGRGWPYGYGGWGWYNPGPARVQTVVTE [P0AA91]	6.07 ± 0.61	6.3 ± 0.12	6.13 ± 0.12	6.532 ± 0.04	5.76 ± 0.071	3.01 ± 0.17	6.05 ± 0.21	10.7 ± 2.4	6.52 ± 0.45	13.7 ± 1.7	6.13 ± 0.1	–
MSTKPLFLLRKAKKSSGEPDVVLWASNDFESTCATLDYLIVKSGKKLSSYFKAVATNFPVVNDLPAEGEIDFTWSERYQLSKDSMTWELKPGAAPDNAHYQGNTNVNGEDMTEIEENMLLPISGQELPIRWLAQHGSEKPVTHVSRDGLQALHIARAEELPAVTALAVSHKTSLLDPLEIRELHKLVRDTDKVFPNPGNSNLGLITAFFEAYLNADYTDRGLLTKEWMKGNRVSHITRTASGANAGGGNLTDRGEGFVHDLTSLARDVATGVLARSMDLDIYNLHPAHAKRIEEIIAENKPPFSVFRDKFITMPGGLDYSRAIVVASVKEAPIGIEVIPAHVTEYLNKVLTETDHANPDPEIVDIACGRSSAPMPQRVTEEGKQDDEEKPQPSGTTAVEQGEAETMEPDATEHHQDTQPLDAQSQVNSVDAKYQELRAELHEARKNIPSKNPVDDDKLLAASRGEFVDGISDPNDPKWVKGIQTRDCVYQNQPETEKTSPDMNQPEPVVQQEPEIACNACGQTGGDNCPDCGAVMGDATYQETFDEESQVEAKENDPEEMEGAEHPHNENAGSDPHRDCSDETGEVADPVIVEDIEPGIYYGISNENYHAGPGISKSQLDDIADTPALYLWRKNAPVDTTKTKTLDLGTAFHCRVLEPEEFSNRFIVAPEFNRRTNAGKEEEKAFLMECASTGKTVITAEEGRKIELMYQSVMALPLGQWLVESAGHAESSIYWEDPETGILCRCRPDKIIPEFHWIMDVKTTADIQRFKTAYYDYRYHVQDAFYSDGYEAQFGVQPTFVFLVASTTIECGRYPVEIFMMGEEAKLAGQQEYHRNLRTLSDCLNTDEWPAIKTLSLPRWAKEYAND	6.07 ± 0.4	3.46	–	–	–	3.65 ± 0.15	4.2 ± 0.11	5.8 ± 1.9	–	> 16	2.43	4.82
MKILVTGGAGFIGSAVVRHIINNTQDSVVNVDKLTYAGNRESLADVSDSERYVFEHADICDAPAMARIFAQHQPDAVMHLAAESHVDRSITGPAAFIETNIVGTYVLLEAARNYWSALDSDKKNSFRFHHISTDEVYGDLPHPDEVNNTEELPLFTETTAYAPSSPYSASKASSDHLVRAWKRTYGLPTIVTNCSNNYGPYHFPEKLIPLVILNALEGKALPIYGKGDQIRDWLYVEDHARALYTVVTEGKAGETYNIGGHNEKKNIDVVLTICDLLDEIVPKEKSYREQITYVADRPGHDRRYAIDAEKIGRALGWKPQETFESGIRKTVEWYLSNTKWVDNVKSGAYQSWIEQNYEGRQ	5.58	–	5.31	–	–	–	–	–	5.85	–	7.66	–
MIKQRTLKRIVQATGVGLHTGKKVTLTLRPAPANTGVIYRRTDLNPPVDFPADAKSVRDTMLCTCLVNEHDVRISTVEHLNAALAGLGIDNIVIEVNAPEIPIMDGSAAPFVYLLLDAGIDELNCAKKFVRIKETVRVEDGDKWAEFKPYNGFSLDFTIDFNHPAIDSSNQRYAMNFSADAFMRQISRARTFGFMRDIEYLQSRGLCLGGSFDCAIVVDDYRVLNEDGLRFEDEFVRHKMLDAIGDLFMCGHNIIGAFTAYKSGHALNNKLLQAVLAKQEAWEYVTFQDDAELPLAFKAPSAVLA [P0A725]	2.8 ± 0.28	0.889 ± 0.17	0.979 ± 0.33	1.03 ± 0.011	0.639 ± 0.021	0.467 ± 0.1	0.861 ± 0.11	1.1 ± 0.33	0.978 ± 0.12	1.43 ± 0.28	1.06 ± 0.19	2.1 ± 0.78
MASQLTDAFARKFYYLRLSITDVCNFRCTYCLPDGYKPSGVTNKGFLTVDEIRRVTRAFARLGTEKVRLTGGEPSLRRDFTDIIAAVRENDAIRQIAVTTNGYRLERDVASWRDAGLTGINVSVDSLDARQFHAITGQDKFNQVMAGIDAAFEAGFEKVKVNTVLMRDVNHHQLDTFLNWIQHRPIQLRFIELMETGEGSELFRKHHISGQVLRDELLRRGWIHQLRQRSDGPAQVFCHPDYAGEIGLIMPYEKDFCATCNRLRVSSIGKLHLCLFGEGGVNLRDLLEDDTQQQALEARISAALREKKQTHFLHQNNTGITQNLSYIGG	3.3 ± 0.76	1.83 ± 0.45	0.963 ± 0.26	1.07 ± 0.34	0.9113 ± 0.009	0.618 ± 0.051	1.11 ± 0.23	1.92 ± 0.54	1.03	1.81 ± 0.17	> 8	2.39 ± 0.45
MPRFAANLSMMFTEVPFIERFAAARKAGFDAVEFLFPYNYSTLQIQKQLEQNHLTLALFNTAPGDINAGEWGLSALPGREHEAHADIDLALEYALALNCEQVHVMAGVVPAGEDAERYRAVFIDNIRYAADRFAPHGKRILVEALSPGVKPHYLFSSQYQALAIVEEVARDNVFIQLDTFHAQKVDGNLTHLIRDYAGKYAHVQIAGLPDRHEPDDGEINYPWLFRLFDEVGYQGWIGCEYKPRGLTEEGLGWFDAWR	3.98	2.21	2.23	2.48 ± 0.15	2.41 ± 0.048	2.829 ± 0.0073	3.68 ± 0.23	6.54 ± 0.17	–	3.45	4.28	8.69 ± 0.052
MLHTANPVIKHKAGLLNLAEELSNVSKACKIMGVSRDTFYRYRELVAEGGVDAQINRSRRAPNLKNRTDEATEQAVVDYAVAFPTHGQHRASNELRKQGVFISDSGVRSVWLLHNLENLKRRY	5.09 ± 0.95	–	–	–	–	–	–	–	–	–	–	–
MSEKSIVQEARDIQLAMELITLGARLQMLESETQLSRGRLIKLYKELRGSPPPKGMLPFSTDWFMTWEQNVHASMFCNAWQFLLKTGLCNGVDAVIKAYRLYLEQCPQAEEGPLLALTRAWTLVRFVESGLLQLSSCNCCGGNFITHAHQPVGSFACSLCQPPSRAVKRRKLSQNPADIIPQLLDEQRVQAV [P0ABY7]	> 8	4.44	–	–	–	0.252	0.52	–	–	–	–	–
MVSRKRNSVIYRFASLLLVLMLSACSALQGTPQPAPPVTDHPQEIRRDQTQGLQRIGSVSTMVRGSPDDALAEIKAKAVAAKADYYVVVMVDETIVTGQWYSQAILYRK	5.47 ± 0.3	6.25 ± 1	7.06	6.07 ± 0.52	5.58 ± 0.19	3.29 ± 0.23	–	11.6 ± 1.4	6.049 ± 0.053	–	7.24 ± 1.1	14.8
MAQEIELKFIVNHSAVEALRDHLNTLGGEHHDPVQLLNIYYETPDNWLRGHDMGLRIRGENGRYEMTMKVAGRVTGGLHQRPEYNVALSEPTLDLAQLPTEVWPNGELPADLASRVQPLFSTDFYREKWLVAVDGSQIEIALDQGEVKAGEFAEPICELELELLSGDTRAVLKLANQLVSQTGLRQGSLSKAARGYHLAQGNPAREIKPTTILHVAAKADVEQGLEAALELALAQWQYHEELWVRGNDAAKEQVLAAISLVRHTLMLFGGIVPRKASTHLRDLLTQCEATIASAVSAVTAVYSTETAMAKLALTEWLVSKAWQPFLDAKAQGKISDSFKRFADIHLSRHAAELKSVFCQPLGDRYRDQLPRLTRDIDSILLLAGYYDPVVAQAWLENWQGLHHAIATGQRIEIEHFRNEANNQEPFWLHSGKR	5.73 ± 0.11	5.48 ± 0.56	5.22 ± 0.088	4.91 ± 1.1	4.78 ± 0.12	3.09 ± 0.13	6.25 ± 0.19	10.7 ± 1.1	5.37 ± 0.26	8.65 ± 0.74	6.02 ± 0.58	11.6 ± 1.1
